Test results published in US20090246205A1 (Eli Lilly, published 2009).
Values belong to the binder of their own block, whether it stands above or below them.

What was measured:
Recombinant RON-Fc [1] = target: T1, Recombinant RON-Fc (human, UniProt Q04912 25-571); experiment: ELISA, blocking of the MSP/RON interaction
T1 construct: also called recombinant human RON receptor; MSP-R; not shown: Fc part of the bought RON-Fc (Sigma-Aldrich)
T1 sequence (looked up): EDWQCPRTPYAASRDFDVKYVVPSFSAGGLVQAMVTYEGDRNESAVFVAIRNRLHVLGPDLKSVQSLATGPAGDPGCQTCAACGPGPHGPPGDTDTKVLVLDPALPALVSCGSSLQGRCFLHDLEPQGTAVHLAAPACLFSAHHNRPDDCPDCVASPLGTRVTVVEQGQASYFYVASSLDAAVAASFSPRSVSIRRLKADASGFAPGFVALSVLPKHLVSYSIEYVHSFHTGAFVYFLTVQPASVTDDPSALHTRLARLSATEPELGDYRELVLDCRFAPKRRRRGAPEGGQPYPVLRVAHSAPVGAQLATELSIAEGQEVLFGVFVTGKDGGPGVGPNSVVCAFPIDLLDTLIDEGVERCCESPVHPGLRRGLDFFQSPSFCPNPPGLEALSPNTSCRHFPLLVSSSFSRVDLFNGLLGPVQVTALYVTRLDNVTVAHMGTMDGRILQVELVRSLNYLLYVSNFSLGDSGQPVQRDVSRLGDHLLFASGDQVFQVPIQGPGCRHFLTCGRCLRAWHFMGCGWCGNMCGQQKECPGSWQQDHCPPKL
Procedure: ELISA to Detect Fab Antibodies That Block the MSP/RON Interaction. Maxi-sorp 96-well microtiter plates (Nunc) were coated with (1 μg/ml×100 μl) MSP (R&D Systems) at RT for 1.5 hours. After washing the wells, they were blocked with 3% PBS/milk. Anti-RON phage antibodies that were converted to Fab or full IgG were pre-incubated with RON-Fc (25 ng/well) at RT for 1 hour. The Fab/RON-Fc or IgG/RON-Fc mixtures were then added to the MSP-coated wells and allowed to incubate for 1.5 h at RT.
ELISA for Determination of IC50 and ED50 The ability of the anti-RON antibodies, IMC-41A10 and IMC-41B12, to bind to recombinant human RON receptor and to block the MSP/RON interaction were measured using ELISA.

Recombinant RON-Fc [2] = target: T1, Recombinant RON-Fc; experiment: BIAcore 3000 SPR, RON-Fc immobilized, Fab or antibody injected
Procedure: BIAcore-Analysis. The binding kinetics of soluble Fab and antibody proteins to RON was determined by using a BIACORE 3000 (BIAcore, Piscataway, N.J.). Recombinant RON-Fc was immobilized onto a sensor chip, and Fab or antibody was injected at various concentrations. Sensorgrams were obtained and evaluated using BIA Evaluation 2.0 software to determine rate constants. The affinity constant, KD, was calculated from the ratio of the rate constants Koff/Kₒₙ. The “Kon, M⁻¹.S⁻¹” and “Koff, S⁻¹” rates of the interaction were used to determine the affinity (Kd, M) of the antibody/receptor interaction. […] For IMC-41B12, they were: 1e-10, 1.7e6 and 1.7e-4.

Recombinant RON-Fc [3] = target: T1, Recombinant RON-Fc; experiment: ELISA, recombinant human RON receptor immobilized on the plate

IC50 (Recombinant RON-Fc [1]): 2000 pM
Kd (Recombinant RON-Fc [2]): 1500 pM
koff (Recombinant RON-Fc [2]): 0.00013 s⁻¹
kon (Recombinant RON-Fc [2]): 84000 M⁻¹ s⁻¹
EC50 (Recombinant RON-Fc [3]): 150 pM
B1: IMC-41A10 (antibody, V domains shown)
VH: EVQLVQSGGGLVKPGGSLRLSCAASGFTFSSYAMHWVRQAPGKGLEWVAVISYDGSNKYYADSVKGRFTISRDNSKNTLYLQMNSLRAEDTAVYYCARFSGWPNNYYYYGMDVWGQGTTVTVSS
VL: DVVMTQSPLSLPVTPGEPASISCRSSQSLLHSNGFNYVDWYLQKPGQSPHLLIYFGSYRASGVPDRFSGSGSGTDFTLKISRVEAEDVGVYYCMQALQTPPWTFGQGTKVEIR
notes: also called anti-RON IMC-41A10 antibody; IMC-14A10

IC50 (Recombinant RON-Fc [1]): 2000 pM
Kd (Recombinant RON-Fc [2]): 100 pM
koff (Recombinant RON-Fc [2]): 0.00017 s⁻¹
kon (Recombinant RON-Fc [2]): 1.7e+06 M⁻¹ s⁻¹
EC50 (Recombinant RON-Fc [3]): 100 pM
B2: IMC-41B12 (antibody, V domains shown)
VH: QVQLQESGPGLVKPSEILSLTCTVSGGSISSHYWSWVRQPPGKGLEWIGYIYYSGSTNYNPSLKSRVTISVDTSKNQFSLNLSSVTAADTAVYYCARIPNYYDRSGYYPGYWYFDLWGRGTLVTVSS
VL: QAVLTQPSSLSAPPGASASLTCTLRSGFNVDSYRISWYQQKPGSPPQYLLRYKSDSDKQQGSGVPSRFSGSKDASANAGILLISGLQSEDEADYYCMIWHSSAWVFGGGTKLTVLR
notes: also called IMC-14B12
